Data from patent US20220064327A1 (KYMAB, published 2022).

Tests used:
human factor IX = biological target: T1, human factor IX (human, UniProt P00740 47-461, 12 glutamic acid residues of the GLA domain are post-translationally γ-carboxylated); assay: SPR, IgG captured on anti-human IgG Fc, human FIX as analyte
T1 construct: Zymogen used as analyte in SPR, reconstituted at 1 mg/ml; also called FIX; Human FIX (MW ~55 KDa)
Protocol: (§1) SPR was used to determine the binding affinity (KD) to FIX or FX respectively, the kinetic constants on-rate (kₒₙ) and off-rate (koff). Analyses was performed using a Biacore 8K (GE Healthcare) system.
(§2) Monospecific antibodies (referred as ligand) which had been purified on Protein A were captured onto the anti-human IgG Fc CM4 surface at approximately 2 μg/ml. The ligands were injected for 60 seconds at 10 μl/min in all the active channels of all 8 flow channels. The run was performed at 25° C. using neutral pH HBS-P 1X+CaCl₂ 2.5 mM as running buffer.
(§3) Human FIX (MW ˜55 KDa) or human FX (MW ˜58 KDa) was reconstituted at 1 mg/ml in the running buffer and used as analyte. The analyte was injected in multiple cycle kinetics (MCK) mode at 3 concentrations (1.5 μM, 500 nM and 166.7 nM) with 120 seconds association phase and 200 seconds (for FIX) or 300 seconds (for FX) dissociation phase, at flow rate […] in both active and reference channels. Three injections of 10 mM Glycine pH 1.5 for 60 sec. at 10 μl/min were used for the regeneration phase.

human factor X [1] = biological target: T2, human factor X (human, UniProt P00742 41-179; P00742 183-488); assay: SPR, IgG captured on anti-human IgG Fc, human FX as analyte
T2 construct: Zymogen used as analyte in SPR; also called FX; Human FX (MW ~58 KDa)
Protocol: as §1, §2, §3

human factor X [2] = biological target: T2, human factor X; assay: SPR as in Example 10, human FX as analyte
Protocol: as §2, §3
Affinity and kinetics of purified anti-FIX and anti-FX antibodies for binding to their respective antigens was determined by SPR as described in Example 10 above.

T1 sequence (P00740 47-461 limits assumed): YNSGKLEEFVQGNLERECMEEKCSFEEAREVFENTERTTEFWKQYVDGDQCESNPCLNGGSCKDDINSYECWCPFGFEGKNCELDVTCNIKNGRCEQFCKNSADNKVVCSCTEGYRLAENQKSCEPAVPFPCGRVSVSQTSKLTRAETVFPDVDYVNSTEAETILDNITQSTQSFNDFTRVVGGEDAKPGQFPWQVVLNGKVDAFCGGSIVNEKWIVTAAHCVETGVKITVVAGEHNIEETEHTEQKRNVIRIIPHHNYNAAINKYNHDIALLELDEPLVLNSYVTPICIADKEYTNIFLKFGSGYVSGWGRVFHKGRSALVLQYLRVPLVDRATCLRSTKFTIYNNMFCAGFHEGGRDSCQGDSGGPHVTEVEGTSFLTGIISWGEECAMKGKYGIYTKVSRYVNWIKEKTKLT
T2 sequence (P00742 41-179, chain 1 of 2): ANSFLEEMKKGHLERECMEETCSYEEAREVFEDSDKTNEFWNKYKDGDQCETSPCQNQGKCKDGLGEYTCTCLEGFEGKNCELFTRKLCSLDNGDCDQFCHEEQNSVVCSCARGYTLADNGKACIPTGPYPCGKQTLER
T2 sequence (P00742 183-488, chain 2 of 2): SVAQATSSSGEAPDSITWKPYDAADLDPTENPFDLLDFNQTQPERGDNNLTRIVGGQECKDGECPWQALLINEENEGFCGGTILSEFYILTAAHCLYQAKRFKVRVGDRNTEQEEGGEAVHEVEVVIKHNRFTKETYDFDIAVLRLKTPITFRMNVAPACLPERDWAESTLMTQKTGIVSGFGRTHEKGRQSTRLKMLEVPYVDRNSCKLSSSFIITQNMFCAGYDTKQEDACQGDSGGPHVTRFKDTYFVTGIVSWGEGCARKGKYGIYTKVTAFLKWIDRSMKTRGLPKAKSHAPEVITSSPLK

Binder	Kd (human factor X [1])	koff (human factor X [1])	kon (human factor X [1])	also measured
NINA-0440.0128 (antibody, V domains shown) VH: EVQLVESGGGFVQPGGSLRLSCAVSGFTFNSYWMSWVRQAPGKGLEWVANINQDGSEKFYVASVKGRFTMSRDNAKKSVYVQMNSLRAEDTAVYYCAREGYSSNSYYGMDVWGQGTTVTVSS VL: SYVLTQPPSVSVAPGETARITCGGDNIGRKSVYWYQQKSGQAPVLVIYYDSDRPSGIPERFSGSNSGNTATLTISRVEAGDEADYYCQVWDGSSDHWVFGGGTKLTVL				Kd (human factor IX): 289 nM; koff (human factor IX): 0.0535 s⁻¹; kon (human factor IX): 185000 M⁻¹ s⁻¹
NINA-0442.0128 (antibody, V domains shown) VH: EVQLVESGGGFVQPGGSLRLSCAVSGFTFNSYWMSWVRQAPGKGLEWVANINQDGSEKFYVASVKGRFTMSRDNAKKSVYVQMNSLRAEDTAVYYCAREGYSSQSYYGMDVWGQGTTVTVSS VL: SYVLTQPPSVSVAPGETARITCGGDNIGRKSVYWYQQKSGQAPVLVIYYDSDRPSGIPERFSGSNSGNTATLTISRVEAGDEADYYCQVWDGSSDHWVFGGGTKLTVL				Kd (human factor IX): 242 nM; koff (human factor IX): 0.0471 s⁻¹; kon (human factor IX): 194000 M⁻¹ s⁻¹
NINA-0444.0128 (antibody, V domains shown) VH: EVQLVESGGGFVQPGGSLRLSCAVSGFTFNSYWMSWVRQAPGKGLEWVANINQDGSEKFYVASVKGRFTMSRDNAKKSVYVQMNSLRAEDTAVYYCAREGYSSTSYYGMDVWGQGTTVTVSS VL: SYVLTQPPSVSVAPGETARITCGGDNIGRKSVYWYQQKSGQAPVLVIYYDSDRPSGIPERFSGSNSGNTATLTISRVEAGDEADYYCQVWDGSSDHWVFGGGTKLTVL				Kd (human factor IX): 206 nM; koff (human factor IX): 0.0445 s⁻¹; kon (human factor IX): 216000 M⁻¹ s⁻¹
NINA-0445.0128 (antibody, V domains shown) VH: EVQLVESGGGFVQPGGSLRLSCAVSGFTFNSYWMSWVRQAPGKGLEWVANINQDGSEKFYVASVKGRFTMSRDNAKKSVYVQMNSLRAEDTAVYYCAREGYSSVSYYGMDVWGQGTTVTVSS VL: SYVLTQPPSVSVAPGETARITCGGDNIGRKSVYWYQQKSGQAPVLVIYYDSDRPSGIPERFSGSNSGNTATLTISRVEAGDEADYYCQVWDGSSDHWVFGGGTKLTVL				Kd (human factor IX): 267 nM; koff (human factor IX): 0.0544 s⁻¹; kon (human factor IX): 204000 M⁻¹ s⁻¹
NINA-0456.0128 (antibody, V domains shown) VH: EVQLVESGGGFVQPGGSLRLSCAVSGFTFNSYWMSWVRQAPGKGLEWVANINQDGSEKFYVASVKGRFTMSRDNAKKSVYVQMNSLRAEDTAVYYCAREGYSSSLYYGMDVWGQGTTVTVSS VL: SYVLTQPPSVSVAPGETARITCGGDNIGRKSVYWYQQKSGQAPVLVIYYDSDRPSGIPERFSGSNSGNTATLTISRVEAGDEADYYCQVWDGSSDHWVFGGGTKLTVL				Kd (human factor IX): 263 nM; koff (human factor IX): 0.0396 s⁻¹; kon (human factor IX): 151000 M⁻¹ s⁻¹
TINA-0215.0128 (antibody, V domains shown, Monospecific IgG4PE) VH: QVQLVQSGAEVKKPGASVKVSCKASRYSFTSYYMHWVRQAPGQGLEWMGIINPKSGSTSYAQKFQGRVTMTRDTSTSTVYMELSSLRSEDTAVYYCARDGYGSSSRCLQLWGQGTLVTVSS VL: SYVLTQPPSVSVAPGETARITCGGDNIGRKSVYWYQQKSGQAPVLVIYYDSDRPSGIPERFSGSNSGNTATLTISRVEAGDEADYYCQVWDGSSDHWVFGGGTKLTVL	1150 nM	0.0787 s⁻¹	68400 M⁻¹ s⁻¹	
TINA-0203.0128 (antibody, V domains shown, Monospecific IgG4PE) VH: QVQLVQSGAEVKKPGASVKVSCKASRYSFTSYYMHWVRQAPGQGLEWMGIINPKSGSTSYAQKFQGRVTMTRDTSTSTVYMELISLRSEDTAVYYCARDGYGSSSRCLQLWGQGTLVTVSS VL: SYVLTQPPSVSVAPGETARITCGGDNIGRKSVYWYQQKSGQAPVLVIYYDSDRPSGIPERFSGSNSGNTATLTISRVEAGDEADYYCQVWDGSSDHWVFGGGTKLTVL	880 nM	0.0598 s⁻¹	68000 M⁻¹ s⁻¹	
TINA-0204.0128 (antibody, V domains shown, Monospecific IgG4PE) VH: QVQLVQSGAEVQKTGASVKVSCKASRYSFTSYYMHWVRQAPGQGLEWMGIINPKSGSTSYAQKFQGRVTMTRDTSTSTVYMELSSLRSEDTAVYYCARDGYGSSSRCLQLWGQGTLVTVSS VL: SYVLTQPPSVSVAPGETARITCGGDNIGRKSVYWYQQKSGQAPVLVIYYDSDRPSGIPERFSGSNSGNTATLTISRVEAGDEADYYCQVWDGSSDHWVFGGGTKLTVL	718 nM	0.0785 s⁻¹	109000 M⁻¹ s⁻¹	
TINA-0206.0128 (antibody, V domains shown, Monospecific IgG4PE) VH: QVQLVQSGAEVKKPGASVKVSCKASRYSFTSYYMHWVRQAPGQGLEWMGIINPKSGDTSYAQKFQGRVTMTRDTSTSTVYMDLSSLRSEDTAVYYCARDGYGSSARCLQLWGQGTLVTVSS VL: SYVLTQPPSVSVAPGETARITCGGDNIGRKSVYWYQQKSGQAPVLVIYYDSDRPSGIPERFSGSNSGNTATLTISRVEAGDEADYYCQVWDGSSDHWVFGGGTKLTVL	992 nM	0.0667 s⁻¹	67200 M⁻¹ s⁻¹	
TINA-0207.0128 (antibody, V domains shown, Monospecific IgG4PE) VH: QVQLVQSGAEVKKTGASVKVSCKASRYSFTSYYMHWVRQAPGQGLEWMGIINPKSGSTSYAQKFQGRVTMTRDTSTSTVYMELSSLRSEDTAVYYCARDGYGSSSRCLQLWGQGTLVTVSS VL: SYVLTQPPSVSVAPGETARITCGGDNIGRKSVYWYQQKSGQAPVLVIYYDSDRPSGIPERFSGSNSGNTATLTISRVEAGDEADYYCQVWDGSSDHWVFGGGTKLTVL	847 nM	0.141 s⁻¹	166000 M⁻¹ s⁻¹	
TINA-0209.0128 (antibody, V domains shown, Monospecific IgG4PE) VH: QVQLVQSGAEVQKPGASVKVSCKASRYSFTSYYLHWVRQAPGQGLEWMGIINPKTGDTSYAQKFQGRVTMTRDTSTTTVYMELSSLRSEDTAVYYCARDGYGSSARCLQLWGQGTLVTVSS VL: SYVLTQPPSVSVAPGETARITCGGDNIGRKSVYWYQQKSGQAPVLVIYYDSDRPSGIPERFSGSNSGNTATLTISRVEAGDEADYYCQVWDGSSDHWVFGGGTKLTVL	1150 nM	0.0679 s⁻¹	59000 M⁻¹ s⁻¹	
TINA-0210.0128 (antibody, V domains shown, Monospecific IgG4PE) VH: QVQLVQSGAEVKKPGASVKVSCKASRYSFTSYYMHWVRQAPGQGLEWMGIINPKSGSTSYAQKFQGRVTMTRDTSTSTVYMELNSLRSEDTAVYYCARDGYGSSSRCLQLWGQGTLVTVSS VL: SYVLTQPPSVSVAPGETARITCGGDNIGRKSVYWYQQKSGQAPVLVIYYDSDRPSGIPERFSGSNSGNTATLTISRVEAGDEADYYCQVWDGSSDHWVFGGGTKLTVL	974 nM	0.0744 s⁻¹	76400 M⁻¹ s⁻¹	
TINA-0211.0128 (antibody, V domains shown, Monospecific IgG4PE) VH: QVQLVQSGAEVKKPGASVKVSCKASRYSFTSYYMHWVRQAPGQGLEWMGIINPKSGSTSYAQKFQGRVTMTRDTSTSTVYMDLSSLRSEDTAVYYCARDGYGSSSRCLQLWGQGTLVTVSS VL: SYVLTQPPSVSVAPGETARITCGGDNIGRKSVYWYQQKSGQAPVLVIYYDSDRPSGIPERFSGSNSGNTATLTISRVEAGDEADYYCQVWDGSSDHWVFGGGTKLTVL	680 nM	0.0447 s⁻¹	65700 M⁻¹ s⁻¹	
TINA-0214.0128 (antibody, V domains shown, Monospecific IgG4PE) VH: QVQLVQSGAEVKKTGASVKVSCQASRYSFTSYYMHWVRQAPGQGLEWMGIINPKSGSTSYAQKFQGRVTMTRDTSTSTVYMELSSLRSEDTAVYYCARDGYGSSSRCLQLWGQGTLVTVSS VL: SYVLTQPPSVSVAPGETARITCGGDNIGRKSVYWYQQKSGQAPVLVIYYDSDRPSGIPERFSGSNSGNTATLTISRVEAGDEADYYCQVWDGSSDHWVFGGGTKLTVL	466 nM	0.0558 s⁻¹	120000 M⁻¹ s⁻¹	
TINA-0217.0128 (antibody, V domains shown, Monospecific IgG4PE) VH: QVQLVQSGAEVTKPGASVKVSCKASRYSFTSYYMHWVRQAPGQGLEWMGIINPKSGSTSYAQKFQGRVTMTRDTSTSTVYMELSSLRSEDTAVYYCARDGYGSSSRCLQLWGQGTLVTVSS VL: SYVLTQPPSVSVAPGETARITCGGDNIGRKSVYWYQQKSGQAPVLVIYYDSDRPSGIPERFSGSNSGNTATLTISRVEAGDEADYYCQVWDGSSDHWVFGGGTKLTVL	564 nM	0.0574 s⁻¹	102000 M⁻¹ s⁻¹	
TINA-0616.0128 (antibody, V domains shown, Monospecific IgG; position is IMGT numbering, not a count on the entry) VH: QVQLIQSGAEVKKPGASVKVSCKASRYSFTSYYMHWVRQAPGQGLEWMGIINPKSGSTSYAQKFQGRVTMTRDTSTSTVYMELSSLRSEDTAVYYCARDGYGSSSRCIQLWGQGTLVTVSS VL: SYVLTQPPSVSVAPGETARITCGGDNIGRKSVYWYQQKSGQAPVLVIYYDSDRPSGIPERFSGSNSGNTATLTISRVEAGDEADYYCQVWDGSSDHWVFGGGTKLTVL				Kd (human factor X [2]): 530 nM; koff (human factor X [2]): 0.0222 s⁻¹; kon (human factor X [2]): 41900 M⁻¹ s⁻¹
TINA-0666.0128 (antibody, V domains shown, Monospecific IgG) VH: QVQLIQSGAEVKKPGASVKVSCKASRYSFTSYYMHWVRQAPGQGLEWMGIINPKSGSTSYAQKFQGRVTMTRDTSTSTVYMELSSLRSEDTAVYYCARDGYGSSSRIIQLWGQGTLVTVSS VL: SYVLTQPPSVSVAPGETARITCGGDNIGRKSVYWYQQKSGQAPVLVIYYDSDRPSGIPERFSGSNSGNTATLTISRVEAGDEADYYCQVWDGSSDHWVFGGGTKLTVL				Kd (human factor X [2]): 927 nM; koff (human factor X [2]): 0.0417 s⁻¹; kon (human factor X [2]): 44900 M⁻¹ s⁻¹
